The target in assay [1] is noumeavirus NMV_189 (noumeavirus).
The target is the same in assay [2]. As to the kind of experiment: crystal structure.
Assay [3] addresses zamilon vitis Zav_19 (zamilon vitis virophage).
The target is the same in assay [4]. As to the kind of experiment: crystal structure.

Like-named read-outs stand apart in the source and are kept apart here.

Turning to noumeavirus NMV_189 (natural protein), the stoichiometry N in assay [1] and in assay [2] was 3 in each case.
In the case of zamilon vitis Zav_19 (natural protein), the stoichiometry N in assay [3] and in assay [4] was 3 in each case.

For orientation: stoichiometry N means a count of units in the complex or per binding partner.

Values taken from doi:10.1101/2023.01.23.525297.
